The values below come from doi:10.1101/2023.11.12.566739.

The target of series [1] is T1, α-synCas (synthetic ancestral Cas12a-like nuclease, ASR) (synthetic construct (ancestral …, UniProt PDB:8QWE_1 1-1261)).
T1 chain: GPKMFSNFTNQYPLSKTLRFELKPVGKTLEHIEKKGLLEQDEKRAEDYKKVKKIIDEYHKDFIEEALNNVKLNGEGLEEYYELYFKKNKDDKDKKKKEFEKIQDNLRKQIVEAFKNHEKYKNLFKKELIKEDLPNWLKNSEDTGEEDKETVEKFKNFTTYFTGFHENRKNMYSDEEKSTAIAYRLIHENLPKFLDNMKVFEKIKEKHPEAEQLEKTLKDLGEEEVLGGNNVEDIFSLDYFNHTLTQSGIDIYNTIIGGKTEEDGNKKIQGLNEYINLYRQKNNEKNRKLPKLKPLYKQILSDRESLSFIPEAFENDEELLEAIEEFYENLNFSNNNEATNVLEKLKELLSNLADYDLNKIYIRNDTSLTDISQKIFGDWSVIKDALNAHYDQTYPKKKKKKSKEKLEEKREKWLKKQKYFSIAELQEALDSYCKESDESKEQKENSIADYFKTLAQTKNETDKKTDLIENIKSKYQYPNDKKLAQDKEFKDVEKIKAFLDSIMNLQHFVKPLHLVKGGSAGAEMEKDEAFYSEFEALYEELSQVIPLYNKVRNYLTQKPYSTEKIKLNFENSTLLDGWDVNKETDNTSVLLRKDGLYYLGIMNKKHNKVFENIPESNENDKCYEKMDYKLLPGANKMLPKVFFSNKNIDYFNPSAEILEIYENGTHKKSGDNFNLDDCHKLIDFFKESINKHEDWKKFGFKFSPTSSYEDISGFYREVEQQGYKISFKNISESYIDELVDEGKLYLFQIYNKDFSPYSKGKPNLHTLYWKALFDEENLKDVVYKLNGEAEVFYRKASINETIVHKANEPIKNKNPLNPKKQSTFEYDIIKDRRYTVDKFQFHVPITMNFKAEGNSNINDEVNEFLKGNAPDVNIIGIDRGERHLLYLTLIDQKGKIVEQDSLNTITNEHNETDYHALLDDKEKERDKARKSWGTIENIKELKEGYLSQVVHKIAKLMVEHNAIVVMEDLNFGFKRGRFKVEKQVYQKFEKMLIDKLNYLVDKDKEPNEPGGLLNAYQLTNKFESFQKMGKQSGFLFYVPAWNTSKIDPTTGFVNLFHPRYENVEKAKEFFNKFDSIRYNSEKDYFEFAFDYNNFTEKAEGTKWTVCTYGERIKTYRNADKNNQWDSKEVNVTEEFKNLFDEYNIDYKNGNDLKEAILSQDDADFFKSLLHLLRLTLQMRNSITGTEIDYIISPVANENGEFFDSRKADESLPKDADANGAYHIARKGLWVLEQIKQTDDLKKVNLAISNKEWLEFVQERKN
In words: cryo-EM.

The target of series [2] is T1, α-synCas (synthetic ancestral …). Put plainly: size exclusion chromatography. Background: Size exclusion chromatography separates by hydrodynamic size, large species first.

B1: crRNA + target dsDNA (cis DNA), ternary complex (mixed)
RNA: AAUUUCUACUGUUGUAGAUUCCUAAGGCGUUACCCCAAU
DNA 1: CTAGCATATTTATCCTAAGGCGTTACCCCAATGGGAGGG
DNA 2: CCCTCCCATTGGGGTAACGCCTTAGGATAAATATGCTAG
Take B1: the binding result in series [1] is “binds”.

For AAUUUCUACUGUUGUAGAUUCCUAAGGCGUUACCCCAAU (structured_RNA) [crRNA (cryo-EM)], in series [2], the binding result is recorded as “binds”.
